Data on one sequence can be found in article PMC12285254.

The test system of the data set is T1, TetR1 (C_22735) (Pseudomonas syringae pv. actinidiae biovar 3 strain S26 (M228)), ORF:bd32bde6.
T1 sequence: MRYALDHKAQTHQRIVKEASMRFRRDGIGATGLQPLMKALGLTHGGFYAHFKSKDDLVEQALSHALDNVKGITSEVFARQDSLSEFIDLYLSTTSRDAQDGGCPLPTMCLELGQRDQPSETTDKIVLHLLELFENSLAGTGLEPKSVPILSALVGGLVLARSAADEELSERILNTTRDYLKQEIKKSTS
Kind of data set: EMSA. The following applies: LightShift EMSA Optimization and Control kit (Thermo) per manufacturer, 100 ng probe per reaction, varied protein; 2 uL of 1 mg/mL Myc.A7 for supershift ….

Turning to “TTGAGTCGAGGATCACAATCTTCTGAAACATGGGCTTACCCTGATTTAATGGTGTGCAAGCCCTATAGCGATAACCATGCCAGCTTAAAAATATAAATAAGCCACTGATTTATAACGATATTTTAAAATATGAAATCCTTTGCAATACAAAACTTTGCGCAAACCGTTTTTTGCCACAACAGCTTTTGGCACAAAAACATCGGCCAGCTTCGCAAGGGAACTGATCCGGGACCGTGACCCACTCAGCGAACATAACCCGGCT (double strand) [hrpL upstream probe (262 bp)]”, the binding entry was “binds”.
